For one substance, Kd, koff and kon results are on record in patent EP4650366A1.

Test [1] addresses Human GARP-TGFβ1 complex (human) (UniProt Q14392). Nature of the test: SPR (Biacore T200), method of Example 4.
Test [2] shares this target. The test can be described thus: SPR (Biacore T200), antibody on Protein A chip, antigen in flow. (In general: Surface plasmon resonance follows binding to a sensor surface in real time, without labels.)

Sequence of Human GARP-TGFβ1 complex (human) (Q14392 other isoform, or with tags, fused parts or gaps limits assumed, chain 1 of 2): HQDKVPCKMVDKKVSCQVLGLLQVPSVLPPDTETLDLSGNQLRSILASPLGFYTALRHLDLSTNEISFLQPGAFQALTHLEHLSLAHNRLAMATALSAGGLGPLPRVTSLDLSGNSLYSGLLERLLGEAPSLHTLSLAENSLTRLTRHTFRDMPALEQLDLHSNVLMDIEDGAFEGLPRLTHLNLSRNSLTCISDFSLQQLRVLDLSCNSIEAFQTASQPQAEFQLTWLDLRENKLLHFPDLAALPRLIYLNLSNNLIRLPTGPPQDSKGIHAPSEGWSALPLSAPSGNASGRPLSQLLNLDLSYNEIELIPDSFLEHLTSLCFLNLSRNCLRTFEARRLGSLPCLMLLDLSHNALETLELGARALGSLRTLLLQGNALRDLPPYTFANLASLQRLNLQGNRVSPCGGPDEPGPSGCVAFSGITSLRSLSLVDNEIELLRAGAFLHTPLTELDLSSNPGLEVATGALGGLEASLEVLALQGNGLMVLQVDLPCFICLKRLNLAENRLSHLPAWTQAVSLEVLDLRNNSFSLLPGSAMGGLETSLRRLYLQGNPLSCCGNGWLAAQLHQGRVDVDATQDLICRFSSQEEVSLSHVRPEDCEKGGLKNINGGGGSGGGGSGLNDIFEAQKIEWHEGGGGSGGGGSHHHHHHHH
Sequence of Human GARP-TGFβ1 complex (human) (chain, as listed by the source limits assumed, chain 2 of 2): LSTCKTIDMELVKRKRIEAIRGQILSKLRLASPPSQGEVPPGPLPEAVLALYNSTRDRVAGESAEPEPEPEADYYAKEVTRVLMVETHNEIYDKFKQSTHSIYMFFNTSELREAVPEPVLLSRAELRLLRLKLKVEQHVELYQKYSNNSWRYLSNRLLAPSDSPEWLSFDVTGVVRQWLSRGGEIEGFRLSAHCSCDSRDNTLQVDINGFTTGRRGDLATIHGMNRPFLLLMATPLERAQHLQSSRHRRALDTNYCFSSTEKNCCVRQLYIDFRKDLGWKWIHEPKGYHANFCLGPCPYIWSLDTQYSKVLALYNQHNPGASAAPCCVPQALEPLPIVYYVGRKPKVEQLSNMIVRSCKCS

As for Abbv-151 (antibody), in test [1], the Kd (usually a measure of binding affinity in units of concentration) was 0.98 nM; the koff – broadly, a measure of how fast the partners let go of each other – was found to be 0.000151 s⁻¹; the association rate constant (kon) (usually the second-order rate constant of association) was found to be 154000 M⁻¹ s⁻¹. In test [2], this substance displayed a Kd of 4.39 nM, a koff of 0.00283 s⁻¹ and a kon of 645000 M⁻¹ s⁻¹.
